Blank lines part the entries; values can stand above or below the binder they belong to.
Columns and labels:
[1] = molecular target: T1, mouse CRY2 (amino acids 1–512) (mouse, UniProt Q9R194 1-512); test: crystal structure; complex of purified CRY2 (1–512) and PER2 (1095–1215); crystals grown at 4°C, hanging drop, 100 mM HEPES pH 7.5, 200 mM NaCl, 15% PEG 3350; 2.8 Å; details: both partners purified
T1 construct: Cryptochrome 2 (CRY2), mouse, residues 1-512, photolyase-homology region (PHR); also called CRY2-PHR; mCRY2
T1 sequence (looked up): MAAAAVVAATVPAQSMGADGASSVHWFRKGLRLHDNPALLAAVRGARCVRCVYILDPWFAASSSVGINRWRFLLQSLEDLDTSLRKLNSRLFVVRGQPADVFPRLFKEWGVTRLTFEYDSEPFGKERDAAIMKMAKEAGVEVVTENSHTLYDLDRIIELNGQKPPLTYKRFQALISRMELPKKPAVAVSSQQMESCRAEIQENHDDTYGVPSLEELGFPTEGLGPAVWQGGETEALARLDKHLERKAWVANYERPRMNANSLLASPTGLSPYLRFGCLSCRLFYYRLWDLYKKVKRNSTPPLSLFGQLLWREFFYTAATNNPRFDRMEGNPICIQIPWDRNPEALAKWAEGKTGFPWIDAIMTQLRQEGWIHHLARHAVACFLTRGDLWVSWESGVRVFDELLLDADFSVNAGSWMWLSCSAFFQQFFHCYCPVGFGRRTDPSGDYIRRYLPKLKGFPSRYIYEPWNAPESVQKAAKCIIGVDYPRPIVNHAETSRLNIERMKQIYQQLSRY

[2] = molecular target: T1, mouse CRY2 (amino acids 1–512); test: pull-down; GST-PER2 immobilised on glutathione beads, CRY2-PHR incubated at 4°C for 1 hr; SDS-PAGE, Coomassie stain; details: both partners purified

binding result [1]: binds
B1: murine PER2 (amino acids 1095–1215) (domain or fragment, mouse, UniProt O54943 1095-1215, looked up)
chain: SSDTSHTSKYFGSIDSSENNHKAKMIPDTEESEQFIKYVLQDPIWLLMANTDDSIMMTYQLPSRDLQAVLKEDQEKLKLLQRSQPRFTEGQRRELREVHPWVHTGGLPTAIDVTGCVYCES
notes: also called PER2-CBD

binding result [2]: binds
B2: GST-tagged mPER2 WT (amino acids 1095–1215) (domain or fragment, mouse, UniProt O54943 1095-1215, looked up)
chain: B1 chain
notes: also called WT PER2-CBD; GST-PER2; source: E. coli, purified
